{"source": "patent US12269859B2", "about": "“Synthetic immune receptors and methods of use thereof” (Angeles Therapeutics, Inc., priority 2016, dated 2025)", "system": "target antigen-expressing cell line", "assay": "Jurkat NFAT-GFP assay, coculture with target cell lines expressing the respective target antigen (summary Table 10A)", "format": "cell-based, human", "set-up": "key: The signs +/−, +, 2+ etc. after the name of the cell lines indicate the relative degree of positivity on the Jurkat-NFAT-GFP assay as measured by the % GFP positive cells; +: relative degree of positivity on the Jurkat-NFAT-GFP assay as measured by the % GFP positive cells; 2+: relative degree of positivity on the Jurkat-NFAT-GFP assay as measured by the % GFP positive cells", "summary_of_the_method": "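Read-out: % GFP+ cells by FACS. SIR-transduced, puromycin-selected Jurkat NFAT-GFP (IL-2 promoter reporter) cocultured ~4–18 h with target line, E:T ~1:2; parental cells as control; graded +/−, +, 2+ relative to parental.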"}
{"molecule": "111516-M03 (protein, Polynucleotide encoding a Synthetic Immune Receptor (SIR)) MALPVTALLLPLALLLHAARPLEGKPIPNPLLGLDSTGSGEDLKNVFPPEVAVFEPSKAEIAHTQKATLVCLATGFYPDHVELSWWVNGKEVHSGVCTDPQPLKEQPALNDSRYCLSSRLRVSATFWQNPRNHFRCQVQFYGLSENDEWTQDRAKPVTQIVSAEAWGRADCGITSASYHQGVLSATILYEILLGKATLYAVLVSALVLMAMVKRKDSRGRAKRSGSGATNFSLLKQAGDVEENPGPTSMALPVTALLLPLALLLHAARPDIVLTQSPLSLAVSLGQPAIISCKASQSVSFAGTSLMHWYHQKPGQQPRLLIYRASNLEAGVPDRFSGSGSKTDFTLTISPVEAEDAATYYCQQSREYPYTFGGGTKLEIKRGGGGSGGGGSGGGGSQVQLVQSGAEVVKPGASVKISCKASGYTFTGYFMNWVKQSPGQSLEWIGRIHPYDGDTFYNQKFQGKATLTVDKSSNTAHMELLSLTSEDFAVYYCTRYDGSRAMDYWGQGTTVTVSSTREQKLISEEDGSGIQNPDPAVYQLRDSKSSDKSVCLFTDFDSQTNVSQSKDSDVYITDKCVLDMRSMDFKSNSAVAWSNKSDFACANAFNNSIIPEDTFFPSSDVPCDVKLVEKSFETDTNLNFQNLSVIGFRILLLKVAGFNLLMTLRLWSSRAKRSGSGVKQTLNFDLLKLAGDVESNPGPSRGHMTEYKPTVRLATRDDVPRAVRTLAAAFADYPATRHTVDPDRHIERVTELQELFLTRVGLDIGKVWVADDGAAVAVWTTPESVEAGAVFAEIGPRMAELSGSRLAAQQQMEGLLAPHRPKEPAWFLATVGVSPDHQGKGLGSAVVLPGVEAAERAGVPAFLETSAPRNLPFYERLGFTVTADVEVPEGPRTWCMTRKPGA", "values": [{"measurement": "NFAT-GFP ASSAY Positive Cell lines", "setting": "coculture with LoVo cells", "result": "(+/−)"}, {"measurement": "NFAT-GFP ASSAY Positive Cell lines", "setting": "coculture with SKOV3 cells", "result": "SKOV3 (+), LoVo"}]}
{"molecule": "100615-C06 (protein, Synthetic Immune Receptor (SIR)) MALPVTALLLPLALLLHAARPDIQMTQSPSSLSASVGDRVTITCRASQGIRNNLAWYQQKPGKAPKRLIYAASNLQSGVPSRFTGSGSGTEFTLIVSSLQPEDFATYYCLQHHSYPLTSGGGTKVELEGKPIPNPLLGLDSTGSGEDLKNVFPPEVAVFEPSKAEIAHTQKATLVCLATGFYPDHVELSWWVNGKEVHSGVCTDPQPLKEQPALNDSRYCLSSRLRVSATFWQNPRNHFRCQVQFYGLSENDEWTQDRAKPVTQIVSAEAWGRADCGITSASYHQGVLSATILYEILLGKATLYAVLVSALVLMAMVKRKDSRGRAKRSGSGATNFSLLKQAGDVEENPGPTSMDWIWRILFLVGAATGAHSFEEVQVLESGGGLVQPGGSLRLSCAASGFTFSSYAMSWVRQAPGKGLEWVSAISGSGGSTNYADSVKGRFTISRDNSKNTLYLQMNSLRAEDTAVYYCAGSSGWSEYWGQGTLVTVSSTREQKLISEEDGSGIQNPDPAVYQLRDSKSSDKSVCLFTDFDSQTNVSQSKDSDVYITDKCVLDMRSMDFKSNSAVAWSNKSDFACANAFNNSIIPEDTFFPSSDVPCDVKLVEKSFETDTNLNFQNLSVIGFRILLLKVAGFNLLMTLRLWSSRAKRSGSGVKQTLNFDLLKLAGDVESNPGPSRGHMTEYKPTVRLATRDDVPRAVRTLAAAFADYPATRHTVDPDRHIERVTELQELFLTRVGLDIGKVWVADDGAAVAVWTTPESVEAGAVFAEIGPRMAELSGSRLAAQQQMEGLLAPHRPKEPAWFLATVGVSPDHQGKGLGSAVVLPGVEAAERAGVPAFLETSAPRNLPFYERLGFTVTADVEVPEGPRTWCMTRKPGA", "values": [{"measurement": "NFAT-GFP ASSAY Positive Cell lines", "setting": "coculture with HeLa (Hela) cells", "result": "(+/−)"}, {"measurement": "NFAT-GFP ASSAY Positive Cell lines", "setting": "coculture with LoVo cells", "result": "LoVo (+/−), HeLa"}]}
{"molecule": "021517-I01 (protein) MALPVTALLLPLALLLHAARPLEGKPIPNPLLGLDSTGSGEDLKNVFPPEVAVFEPSKAEIAHTQKATLVCLATGFYPDHVELSWWVNGKEVHSGVCTDPQPLKEQPALNDSRYCLSSRLRVSATFWQNPRNHFRCQVQFYGLSENDEWTQDRAKPVTQIVSAEAWGRADCGITSASYHQGVLSATILYEILLGKATLYAVLVSALVLMAMVKRKDSRGRAKRSGSGATNFSLLKQAGDVEENPGPTSMALPVTALLLPLALLLHAARPQSVVTQPPSVSGAPGQRVTISCTGSSSNIGAGYDVHWYQQLPGTAPKLLIYGNSNRPSGVPDRFSGSKSGTSASLAITGLQAEDEADYYCQSYDSSLSGSYVFGTGTKLTVLGGGGGSGGGGSGGGGSEVQLVETGGNLVQPGASLRLSCAASGFSFSGTAMHWVRQAPGKGLEWVSTISSTGRSTYYRDSVKGRFTISRDNSKNTLYLQMNSLRGEDTAVYYCARVSFDYWGQGTLVTVSSTREQKLISEEDGSGIQNPDPAVYQLRDSKSSDKSVCLFTDFDSQTNVSQSKDSDVYITDKCVLDMRSMDFKSNSAVAWSNKSDFACANAFNNSIIPEDTFFPSSDVPCDVKLVEKSFETDTNLNFQNLSVIGFRILLLKVAGFNLLMTLRLWSSRAKRSGSGVKQTLNFDLLKLAGDVESNPGPSRGHMTEYKPTVRLATRDDVPRAVRTLAAAFADYPATRHTVDPDRHIERVTELQELFLTRVGLDIGKVWVADDGAAVAVWTTPESVEAGAVFAEIGPRMAELSGSRLAAQQQMEGLLAPHRPKEPAWFLATVGVSPDHQGKGLGSAVVLPGVEAAERAGVPAFLETSAPRNLPFYERLGFTVTADVEVPEGPRTWCMTRKPGA", "values": [{"measurement": "NFAT-GFP ASSAY Positive Cell lines", "setting": "coculture with L363 cells", "result": "L363 (+/−)"}]}
{"molecule": "101216-Y07 (protein, Synthetic Immune Receptor (SIR)) MALPVTALLLPLALLLHAARPDIQMTQSPSSLSASVGDRVTITCRASQGISSWLAWYQQKPEKAPKSLIYAASSLQSGVPSRFSGSGSGTDFTLTISSLQPEDFATYYCQQYNSYPPTFGGGTKVEIKLEGKPIPNPLLGLDSTGSGEDLKNVFPPEVAVFEPSKAEIAHTQKATLVCLATGFYPDHVELSWWVNGKEVHSGVCTDPQPLKEQPALNDSRYCLSSRLRVSATFWQNPRNHFRCQVQFYGLSENDEWTQDRAKPVTQIVSAEAWGRADCGITSASYHQGVLSATILYEILLGKATLYAVLVSALVLMAMVKRKDSRGRAKRSGSGATNFSLLKQAGDVEENPGPTSMDWIWRILFLVGAATGAHSFEEVQLVESGGGLVQPGESLRLSCVASGFTFSRYKMNWVRQAPGKGLEWVSYISRSGRDIYYADSVKGRFTISRDNAKNSLYLQMNSLRDEDTAVYYCAGTVTTYYYFGMDVWGHGTTVTVSSTREQKLISEEDGSGIQNPDPAVYQLRDSKSSDKSVCLFTDFDSQTNVSQSKDSDVYITDKCVLDMRSMDFKSNSAVAWSNKSDFACANAFNNSIIPEDTFFPSSDVPCDVKLVEKSFETDTNLNFQNLSVIGFRILLLKVAGFNLLMTLRLWSSRAKRSGSGVKQTLNFDLLKLAGDVESNPGPSRGHMTEYKPTVRLATRDDVPRAVRTLAAAFADYPATRHTVDPDRHIERVTELQELFLTRVGLDIGKVWVADDGAAVAVWTTPESVEAGAVFAEIGPRMAELSGSRLAAQQQMEGLLAPHRPKEPAWFLATVGVSPDHQGKGLGSAVVLPGVEAAERAGVPAFLETSAPRNLPFYERLGFTVTADVEVPEGPRTWCMTRKPGA", "values": [{"measurement": "NFAT-GFP ASSAY Positive Cell lines", "setting": "coculture with H460 cells", "result": "H460 (+/−), HCT116"}, {"measurement": "NFAT-GFP ASSAY Positive Cell lines", "setting": "coculture with HCT116 cells", "result": "(+/−)"}]}
